Results taken from the nanobody polyreactivity screen of Harvey et al. (2022).

Test: yeast display, Sf9 membrane polyspecificity reagent, FACS + sequencing; frameworks hold sequencing errors
Method in brief: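 A nanobody's polyreactivity label depends on the gate it was sorted from. Yeast display cells were stained with 10% biotinylated, detergent-solubilized Sf9 membrane reagent for 1 hour at 4 °C, enriched on streptavidin microbeads and sorted by FACS. The low and high (top ~1%) gates were set on anti-HA fluorescence for expression and streptavidin fluorescence for reagent binding.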
In the case of “QVQLVESGGGLVHAGGSLRVSCAASGSISDSYAMGWYREAPGKERELVAAITSGDSTYYADSVKGRFTISLDNAKNTVYLQMNSVKPEDTAVYYSAKRVSRVRGYGFTDWSEYDYWGQGTQVTVSS”, the “polyreactivity (PSR sort gate)” value is reported as “low polyreactivity”. In the case of “QVQLVESGGGLVHAGGSLSLSCAASGRTFTSNAMGWYRQAPGKERELVATINGGVSTYYADSVKGRFTISRDNAKNTVYLQMNSLKPEDTAVYYCARDAYDADPSLWYYTYDYWGQGTQVTVSS”, the “polyreactivity (PSR sort gate)” value is reported as “low polyreactivity”. With “QVQLVESGGGLVHAGGSLSLSCAASGSTLRAYTMGWYRQSPGKERELVATITRRGGTTYYADSVKGRFTISRDNAKNTVYLQMNSLKPEDTAVYYCAAKWYSTHRYDYWGQGTQVTVSS” the “polyreactivity (PSR sort gate)” value was “high polyreactivity”. In the case of “QVQLVESGGGLVHARGSLRLSCAASGCTFVRNAMGWYRPAPGKERELGAAITSRGGSTYYADSVKGRFTISRDNAKNTVYLQMNSLKPEDTAVYYCAARFGVKRGQYDFWGQGTQVTVSS”, the “polyreactivity (PSR sort gate)” value is reported as “high polyreactivity”. For “QVQLVESGGGLVHEGRSLRLSCAASGSKYSYDAMGWYRQAPGTERELVPTISWRGRTYYADSVKGRFTISRDNAKNTVYLKMISLKPEDTAVYYCNTKSLYGRSRGYPYDYWGQGTQVTVSS”, the “polyreactivity (PSR sort gate)” value was “high polyreactivity”. For “QVQLVESGGGLVHSGRSLRLSCAASGSISCHYAMGWYRTAHGKERDLLAAIDSSGGIKYYADSVKGRFTISRDNSKNTVYLQMNSLKPEDTAVYYCAAVFLLFGFEWSYDYWGQGTQVTVSS”, the “polyreactivity (PSR sort gate)” value was “low polyreactivity”. In the case of “QVQLVESGGGLVKAGCSLRLSCADSGFIFSSYAMGWYRQAPGIERELVAAITRSGGITYYADSLKGRFTISRDNAKITVYLQMNSLKPEDTAVYYCAARWRYYRGYSRQRPYEFDYWGQGTQVTVSA”, the “polyreactivity (PSR sort gate)” value is reported as “high polyreactivity”. With “QVQLVESGGGLVKAGGSLRISCAASGSIFTPYTMGWYRQAPGKERELVAAISSGDSTYYADSVKGRFTISRDNAKKTVYLQMNSLKPEDTAVYYCAADYRYDYDYWGQGTQVTVSS” the “polyreactivity (PSR sort gate)” value was “low polyreactivity”. In the case of “QVQLVESGGGLVKAGGSLRLICAASGSTFGGNDKGWYRHAPGKERELVDAISSGTSTNYADSVKGRFTISRDNAMNTVYLQMNSLKPEDTAVYYCNAGFWYRRTYDYWGQGTQVTVSS”, the “polyreactivity (PSR sort gate)” value is reported as “low polyreactivity”. In the case of “QVQLVESGGGLVKAGGSLRLSCAASGFIFNGYAMGWYRQAPGKESELVAAINSGGITHYADSVKGRFTISRDNAKNTVYLQMNSLKPEDTAVYYCAAVRTGYYRQYDYWGQGTQVTVSS”, the “polyreactivity (PSR sort gate)” value is reported as “high polyreactivity”. With “QVQLVESGGGLVKAGGSLRLSCAASGFIFRYYAMGWYRQAPGKERELVAAITSTGRTYYADSVKGRFTISRDNAKNTVYLQMNSLKPEDTAVYYCAKRSYPWGQGTQVTVSS” the “polyreactivity (PSR sort gate)” value was “low polyreactivity”. In the case of “QVQLVESGGGLVKAGGSLRLSCAASGFIFVYYAMGWYRQAPGKERELVARISWRGGRTYYADSVKGRFTISRDNAKNTVYLQMNSLKPEDTAVYYCNADFWNSHVWYDYWGQGTQVTVSS”, the “polyreactivity (PSR sort gate)” value is reported as “high polyreactivity”. For “QVQLVESGGGLVKAGGSLRLSCAASGFTFYLNAMGWSRQAPGKERELVAGISWRGGRTYYADSVKGRFTISRDNAKITVYVQLNSLKPEDTAVYYCAAVTYSFQKTDYYWGQGTQVTVSA”, the “polyreactivity (PSR sort gate)” value was “high polyreactivity”. With “QVQLVESGGGLVKAGGSLRLSCAASGINFYRYAMGWYRQAPGKERELVAAITWSGVSTSYADSVKGRFTISRDNAKKTVYLQMNSLKPEDTAVYYCNTDPGTLYGDMDSWGQGTQVTVSS” the “polyreactivity (PSR sort gate)” value was “low polyreactivity”. For “QVQLVESGGGLVKAGGSLRLSCAASGITFSYYTMGWYRQAPGKEREFVATISQSSGSTYYADSVKGRFTISRDNAKNTVYLQMNSLKPEDTAVYYCNARRDYEWESWNVDDDYWGQGTQVTVSS”, the “polyreactivity (PSR sort gate)” value was “high polyreactivity”. For “QVQLVESGGGLVKAGGSLRLSCAASGLISYPYSMGWYRQSPWKERELVAAITSRGTSTYYADSVKGRFTISRDNAKYTVYLHMNSLKPEDTAVYYCNAVVWRSRVDYYYWGQGTQVTVSS”, the “polyreactivity (PSR sort gate)” value was “high polyreactivity”. In the case of “QVQLVESGGGLVKAGGSLRLSCAASGNTFGRNVMGWYRPAPGKERELVAAINRGGSTTYADSVKGRFTISRDNAKNTVYLQMNSLKPEDTAVYYCNAEIRGQSYRFDYWGQGTQVTVSS”, the “polyreactivity (PSR sort gate)” value is reported as “high polyreactivity”. With “QVQLVESGGGLVKAGGSLRLSCAASGRIFYGYAMGWYRQAPGKERELVAAITRSGTSTYYADSVKGRFTISRDNAKNTVYLQMHSLKPEDTAVYYCAAVERSLRSPYGDYGYWGHGTQVTVSS” the “polyreactivity (PSR sort gate)” value was “high polyreactivity”. With “QVQLVESGGGLVKAGGSLRLSCAASGRIFYTNDMGWYSQAPGKERELVATISSTGSTNYADSVKGRFTISRDNAKNTVYLEMNSLKPEDTAVYYCAADRSYFLRCIIYDYWGQGTQVTVSS” the “polyreactivity (PSR sort gate)” value was “low polyreactivity”. For “QVQLVESGGGLVKAGGSLRLSCAASGRTFLRNAMGWYRQAPGKERELVATITRGGSTYYADSVKGRFTISRDNAKNSVYLQMNSLKPEDTAVYYCAKDITGGFRRPDYGYWGQGTQVTVSS”, the “polyreactivity (PSR sort gate)” value was “low polyreactivity”. With “QVQLVESGGGLVKAGGSLRLSCAASGSIFGGYAMGCYRQAPGKERELVAAISYRGASTYYADSVKWRFTISRDNAKNTVYLQMNSLKPEDTAVYYCAVAARTRARVLYGYDYWGQGTQVTVSS” the “polyreactivity (PSR sort gate)” value was “low polyreactivity”. With “QVQLVESGGGLVKAGGSLRLSCAASGSNFNPYAMGWYRQEPGKQRELVAAITGSGRSTYNSDSVKGRFTISRDNAKNTVYLEMNSLKPEDTAVYYCNRARILVWSKYGYWGQGTQVTVSS” the “polyreactivity (PSR sort gate)” value was “high polyreactivity”. For “QVQLVESGGGLVKAGGSLRLSCAASGSSFSSYAMGWYREAPGKEWELVAAISGGGNTYYADSVKGRFTISSDNAKNTVYLQMNSLKPEDTAVYYCNKSRLEPEYGYWGQGTQVTVSS”, the “polyreactivity (PSR sort gate)” value was “low polyreactivity”. With “QVQLVESGGGLVKAGGSLRLSCAASGSTFDWYAMGWYRQAPGKERELVAAITWRGDSTNYADSVKGRFTISRDNAKNTVYLQMNSLKPEDTAVYYCATGKTYRDDYWGQGTQVTVSS” the “polyreactivity (PSR sort gate)” value was “high polyreactivity”. For “QVQLVESGGGLVKAGGSLRLSCAASGSTFPYYAMGWYRQAPGTEREFVAAISSSGGSTYYADSVKGRFTISRDNAKNTVYLQMNSLKPEDTAVYYFAAQGARRNYYRYGTYTNRRYDYWGQGTQVTVSS”, the “polyreactivity (PSR sort gate)” value was “high polyreactivity”. With “QVQLVESGGGLVKAGGSLRLSCAASGSTFRRYAMGWYRLAPGKERELVAAITIGGSTYYADSVKGRFTISRDNAKNTVKLKMNSLKPEDTAVYSCNAGKTYLGDYWGQGTQVTVSS” the “polyreactivity (PSR sort gate)” value was “high polyreactivity”. For “QVQLVESGGGLVKAGGSLRLSCAASGSTFYAYAMGWSRQAPGKERELVAAISSSGGSTYYADSVKGRFTISRDNAKNTVYLQMNSLKPEDTAVYYCAAYDSVQIYWILGFDYWGQGSQVTVSS”, the “polyreactivity (PSR sort gate)” value was “low polyreactivity”. In the case of “QVQLVESGGGLVKAGGSLRLSCAASGYTYPLYAMGWYRQAPGKEMELVADINIGGASTYYADSVKGRFTISRDNAKNTVYLQMNSLKPEDTAVYDCAKEYYDGYFPTFDYDYWGQGTQVTVSS”, the “polyreactivity (PSR sort gate)” value is reported as “low polyreactivity”. With “QVQLVESGGGLVKAGGSLRLSCAATGRIFEYNTMGWYRQAPGKERELVAAITGGTGSTYYADSVKGRFTISRDNAKNTVYLKMNSLKPEDTAVYYCAADYTSPAFYSSFDYWGQGTQVTVSS” the “polyreactivity (PSR sort gate)” value was “low polyreactivity”. In the case of “QVQLVESGGGLVKAGGSLRLSCADSGSIFWYYTMGRYRQAPGKEREFVAAISWSGGGSTYYADSVKGRFTISRENAKYTVYLQMNSLKPEDTAVYYCNGDWTSYGFVTRLDYWGHGTQVTVSS”, the “polyreactivity (PSR sort gate)” value is reported as “low polyreactivity”. With “QVQLVESGGGLVKAGGSLRLSCAPSGSTFKSYSMGWYRQAPGIECELVAAITSGGRTYYADSVKGRFTISRDNAKNTVYLQMNSLKPEDTAVYYCAALRVQQVKSYYYWGQGTQVTVSS” the “polyreactivity (PSR sort gate)” value was “high polyreactivity”. For “QVQLVESGGGLVKAGGSLRLSCASSGSTFVGNAMGWYRQAPGKERELVAAISVNDGTTYYADSVKGRFTISRDNAKNTVYLQMNSLKPEDTAVDYCNVKRYGCRSDYWGQGTQVTVSS”, the “polyreactivity (PSR sort gate)” value was “high polyreactivity”. With “QVQLVESGGGLVKAGGSLRLSCDSSGGTFSTYAMGWYRQAPGKERELVAAISWRGGSTYYAVSVKGRFTISRDNAKNTVYLQMNSLKPEYNAVYYCAAYYYRGWLLYWDEMYYWGQGTQVTVSS” the “polyreactivity (PSR sort gate)” value was “high polyreactivity”. For “QVQLVESGGGLVKAGGSLRLSFAASGRNFRRNAMGWYRQAPGRERELVAAISSSGGSTYYADSVKGRFTISRDNAKNTVYLQMNSLKPEDTAVYYCAVRSRFGYYWGQGTQVTVSS”, the “polyreactivity (PSR sort gate)” value was “high polyreactivity”. In the case of “QVQLVESGGGLVKAGGSLRLSSAASGSTFERYAMGWYRQAPGNERELVAAINWSGGGTYYADSVKGRFTISRDTAKNTVYLQMNSLKPEDTAVYYCAADSGTVVFSLWWYEYYYWGQGNQVTVSS”, the “polyreactivity (PSR sort gate)” value is reported as “low polyreactivity”. For “QVQLVESGGGLVKEGGSLRLSCAASGSIYYENTMGWYRQAPGKERELVASISCGGSTYADSVKGRFTISRDNAKNSVYLQMYSLKAEDSAVYYCNADSSTEYDYWGQGTQVTVSS”, the “polyreactivity (PSR sort gate)” value was “low polyreactivity”. In the case of “QVQLVESGGGLVLAGGSLRLSCAASGIIFKIYAMGWFRQAPGKEMELVADITSVGSTKYADSVKGRFTISRDNAKNTVYLQMNSLKPEDTAVYYCATDWVTSHDDDYWGQGTQVTVSS”, the “polyreactivity (PSR sort gate)” value is reported as “low polyreactivity”. In the case of “QVQLVESGGGLVLAGGSLRLSCAASGRIFSYYAMGWYRQAPGQERELVAAISWNGGSTYYADSVKGRFTISRDNAKNTVYLQMNSLKPEDTAVYYCAVLPHYEYDYWGQGTQVTVSS”, the “polyreactivity (PSR sort gate)” value is reported as “high polyreactivity”. For “QVQLVESGGGLVLAGGSLRLSCAASGRIYRIYNKGWYRQAPGKERELVAAISKSGGGTYYADSVKGRFTISRDNAKNTVYLQMNSLKPEDTAVYYCTTANWDRKSRVFRQSTVGYGYWGQGTQVTVSS”, the “polyreactivity (PSR sort gate)” value was “high polyreactivity”. For “QVQLVESGGGLVLAGGSLRLSCAASGSISTNYAMGWYRQAPGKERELVAAISDSSGSTYYADSVKGRFTISRDNAKNIVYLQMNSLKPEDTAVYYCNADSQGGRDVNYDYEYYYWGQGTQVTVSS”, the “polyreactivity (PSR sort gate)” value was “low polyreactivity”. In the case of “QVQLVESGGGLVLAGGSLRLSCAASGYTFTIYAMGWYIQGPGKERELVSAITGRGGRTNYADSVKGRFTISRDNAKNTVYLQMNSLKPEDTAVYYCNAVTKVVYHGPYGYDYWGQGTQVTVSS”, the “polyreactivity (PSR sort gate)” value is reported as “high polyreactivity”. In the case of “QVQLVESGGGLVLAGGSRRLSCASSGSTFPLYTMGWYRQAPGKERELVAAINYGGTSTYYADSVKGRFTFSRVKAKNTVYLQRNSLKPEDTAVYYCAAERYFLYLCRKFGYWGQGTQVTVSW”, the “polyreactivity (PSR sort gate)” value is reported as “high polyreactivity”. For “QVQLVESGGGLVLAGGTLRISCAASGSIFYRNTMGWYRLAPVKERELVAAITRGGGRTYYADSVKARFTISRDTAKNTVFLQMNSLKPEDSAVYYCAVQAFSHTSSRMDYWGQGSQVTVSS”, the “polyreactivity (PSR sort gate)” value was “high polyreactivity”.
